Laboratory results as given in PMC7060279.

Experiments:
[1] = target: integrin αvβ3 protein (UniProt P06756); assay: SPR; Biacore T-200; TLR2, TLR4 and integrin αvβ3 immobilised on a CM5 chip by amine coupling; CCN1 as analyte at 25 µl per min, 25 °C, phosphate buffer with 350 mM NaCl, 0.5 mM CaCl2, 0.5 mM MgCl2, 10 µg per ml BSA; global fit to 1:1 Langmuir model, KD = kd/ka
[2] = target: integrin αvβ3 protein (UniProt P06756)

Chain of integrin αvβ3 protein (P06756 31-1048, chain 1 of 2): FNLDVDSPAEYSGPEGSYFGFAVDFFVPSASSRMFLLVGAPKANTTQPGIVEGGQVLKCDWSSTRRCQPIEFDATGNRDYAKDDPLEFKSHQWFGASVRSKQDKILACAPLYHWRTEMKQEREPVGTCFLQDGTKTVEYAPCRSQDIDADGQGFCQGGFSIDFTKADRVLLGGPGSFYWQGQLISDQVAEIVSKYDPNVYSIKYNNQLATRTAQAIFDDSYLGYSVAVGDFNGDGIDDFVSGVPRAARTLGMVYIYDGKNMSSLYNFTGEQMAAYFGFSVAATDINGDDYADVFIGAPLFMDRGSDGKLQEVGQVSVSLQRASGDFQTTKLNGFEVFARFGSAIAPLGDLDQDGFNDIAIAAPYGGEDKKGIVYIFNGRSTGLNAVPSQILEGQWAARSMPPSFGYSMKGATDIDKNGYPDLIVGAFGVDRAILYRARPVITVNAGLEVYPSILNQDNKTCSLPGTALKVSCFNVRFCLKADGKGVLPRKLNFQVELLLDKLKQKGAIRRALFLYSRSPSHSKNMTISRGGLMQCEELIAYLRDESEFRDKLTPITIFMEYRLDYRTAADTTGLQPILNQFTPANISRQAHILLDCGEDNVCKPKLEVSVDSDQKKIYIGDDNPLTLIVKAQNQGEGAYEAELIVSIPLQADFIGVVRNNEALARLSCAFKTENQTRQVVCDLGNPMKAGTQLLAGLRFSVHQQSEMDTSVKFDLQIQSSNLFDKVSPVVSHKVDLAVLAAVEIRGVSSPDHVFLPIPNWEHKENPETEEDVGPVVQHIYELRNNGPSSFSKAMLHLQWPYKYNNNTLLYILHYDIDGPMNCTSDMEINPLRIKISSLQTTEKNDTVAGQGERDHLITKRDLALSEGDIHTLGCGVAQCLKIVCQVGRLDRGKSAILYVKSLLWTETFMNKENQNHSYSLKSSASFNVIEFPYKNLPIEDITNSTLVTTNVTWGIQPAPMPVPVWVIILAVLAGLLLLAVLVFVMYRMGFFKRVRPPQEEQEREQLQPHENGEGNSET
Chain of integrin αvβ3 protein (P05106 27-718, chain 2 of 2, further chain): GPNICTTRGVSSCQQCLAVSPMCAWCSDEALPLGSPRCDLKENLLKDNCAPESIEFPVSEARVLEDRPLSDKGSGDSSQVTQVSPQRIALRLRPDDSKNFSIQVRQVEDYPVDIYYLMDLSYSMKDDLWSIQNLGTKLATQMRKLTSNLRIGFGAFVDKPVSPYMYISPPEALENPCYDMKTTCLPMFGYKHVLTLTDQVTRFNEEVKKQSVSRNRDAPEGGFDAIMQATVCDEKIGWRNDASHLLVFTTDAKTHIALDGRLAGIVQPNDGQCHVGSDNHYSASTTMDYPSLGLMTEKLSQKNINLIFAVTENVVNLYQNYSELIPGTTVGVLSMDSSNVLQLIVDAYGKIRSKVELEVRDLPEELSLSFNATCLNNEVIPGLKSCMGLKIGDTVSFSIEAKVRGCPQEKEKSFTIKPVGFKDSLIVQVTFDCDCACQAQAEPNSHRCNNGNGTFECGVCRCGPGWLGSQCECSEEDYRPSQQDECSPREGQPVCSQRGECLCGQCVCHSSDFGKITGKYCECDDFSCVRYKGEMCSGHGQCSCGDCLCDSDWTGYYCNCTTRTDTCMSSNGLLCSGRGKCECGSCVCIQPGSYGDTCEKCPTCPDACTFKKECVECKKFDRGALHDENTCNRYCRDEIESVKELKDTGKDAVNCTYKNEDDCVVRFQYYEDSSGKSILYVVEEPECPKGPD

B1: CCN1-WT (recombinant matricellular protein CCN1) (natural protein)
chain: TCPAACHCPLEAPKCAPGVGLVRDGCGCCKVCAKQLNEDCSKTQPCDHTKGLECNFGASSTALKGICRAQSEGRPCEYNSRIYQNGESFQPNCKHQCTCIDGAVGCIPLCPQELSLPNLGCPNPRLVKVSGQCCEEWVCDEDSIKDSLDDQDDLLGLDASEVELTRNNELIAIGKGSSLKRLPVFGTEPRVLFNPLHAHGQKCIVQTTSWSQCSKSCGTGISTRVTNDNPECRLVKETRICEVRPCGQPVYSSLKKGKKCSKTKKSPEPVRFTYAGCSSVKKYRPKYCGSCVDGRCCTPLQTRTVKMRFRCEDGEMFSKNVMMIQSCKCNYNCPHPNEASFRLYSLFNDIHKFRD
B1 showed a Kd [1] of 202 nM and a phagocytosis of S. aureus bioparticles by BMDMs pretreated with CCN1 (2 µg per ml); obliterated by cilengitide (1 µM); also enhanced in BM-PMNs and THP.1 macrophages [2] of 5 fold.
